In patent US20220170028A1, “NOVEL INTERLEUKIN-2 VARIANTS AND BIFUNCTIONAL FUSION MOLECULES THEREOF” (Cugene Inc, priority 2019, published 2022):
“Also recorded” adds a separate entry of the source.

Tests used:
[1] = Aggregate content by size-exclusion chromatography after Protein A purification; format: physicochemical; conditions: for aggregates / high-molecular weight species (SEC): Example 4; for Aggregation % (SEC): after MabSelectSure
Protocol: For affinity chromatography each supernatant was loaded on a HiTrap MabSelectSure column (CV=5 mL, GE Healthcare) equilibrated with 25 ml phosphate buffered saline, pH 7.2 (ThermoFisher). Unbound protein was removed by washing with 5 column volumes PBS, pH 7.2 and target protein was eluted with 25 mM sodium citrate, 25 mM sodium chloride, pH 3.2. Protein solution was neutralized by adding 3% of 1 M Tris pH 10.2. Ion exchange chromatography or mix-mode chromatography, including but not limited to CaptoMMC (GE Healthcare), ceramic hydroxyapatite, or ceramic fluoroapatite (Bio-Rad) was also utilized to polish the Protein A material as needed. Target protein was concentrated with an Amicon®Ultra-15 concentrator 10 KDa NMWC (Merck Millipore Ltd.)
The purity and molecular weight of the purified constructs were analyzed by SDS-PAGE with and in the absence of a reducing agent and staining with Coomassie (Imperial® Stain). The NuPAGE® Pre-Cast gel system (4-12% or 8-16% Bis-Tris, ThermoFisher) was used according to the manufacturer's instructions. The protein concentration of purified protein samples was determined by measuring the UV absorbance at 280 nm (Nanodrop Spectrophotometer, ThermoFisher) divided by the molar extinction coefficient calculated on the basis of the amino acid sequence. The aggregate content of the constructs was analyzed on an Agilent 1200 high-performance liquid chromatography (HPLC) system. Samples were injected onto an AdvanceBio size-exclusion column (300 Å, 4.6×150 mm, 2.7 μm, LC column, Agilent) using 150 mM sodium phosphate, pH 7.0 as the mobile phase at 25° C.
(§1) S125I substitution was thus introduced into a number of IL-2 variant Fc fusion molecules. The constructs harboring Ile-125 substitution in IL-2 were expressed using the same vector and in the same culturing conditions as their Ser-125 counterparts and purified using MabSelectSure. The expression level in mg/L and purity assessed by SEC chromatography in aggregation % of exemplary molecules are summarized in Table 6. The two molecules in the same row of Table 6 share the same other amino acid substitution(s) and differ only at residue 125 with either serine or isoleucine. As an example, the SEC chromatogram and SDS-PAGE pictures of P-0447 (SEQ ID NO: 173) and its Ile-125 counterpart P-0511 (SEQ ID NO: 213) were further illustrated in FIGS. 1D and 1E.

[2] = Transient expression level of IL-2 Fc fusion constructs in HEK-293F cells; conditions: for expression level (titer): transiently in HEK-293F cells, Example 4
Protocol: The constructs were produced by co-transfecting HEK293-F cells growing in suspension with the mammalian expression vectors using polyethylenimine (PEI, 25,000 MW linear, Polysciences). If there were two or more expression vectors, the vectors were transfected in a 1:1 ratio. For transfection, HEK293 cells were cultivated in serum free FreeStyle™ 293 Expression Medium (ThermoFisher). For production in 1000 ml shaking flasks (working volume 330 mL), HEK293 cells were seeded at a density of 0.8×10^6 cells/ml 24 hours before transfection. A total of 330 μg of DNA expression vectors were mixed with 16.7 ml Opti-mem Medium (ThermoFisher). After addition of 0.33 mg PEI diluted in 16.7 ml Opti-mem Medium, the mixture was vortexed for 15 sec and subsequently incubated for 10 min at room temperature. The DNA/PEI solution was then added to the cells and incubated at 37° C. in an incubator with 8% CO2. Sodium butyrate (Millipore Sigma) was added to the cells at day 4 at a final concentration of […] to help sustain protein expression. After 6 days cultivation, supernatant was collected for purification by centrifugation for 20 min at 2200 rpm. The solution was sterile filtered (0.22 μm filter, Corning). The secreted protein was purified from cell culture supernatants using Protein A affinity chromatography.
as §1

[3] = system: CD4+ Treg vs CD4+ Tconv cells; assay: STAT5 phosphorylation, selectivity / activity profile Treg versus CD4+ Tconv cells, human PBMC; format: cell-based
Description: (§2) Single amino acid substitutions were introduced to IL-2 at positions corresponding to amino acids interacting with receptor subunit(s) β or γ or βγ. These substitutions were aimed to reduce IL-2 signaling capacity through the intermediate affinity IL-2Rβγ complex and confer signaling specificity from the high affinity IL-2Rαβγ. IL-2 variants containing single amino acid substitutions were examined for their ability to differentially stimulate STAT5 phosphorylation in CD4 positive Treg and Tconv cells. STAT5 is known to be involved in the downstream signaling cascade upon IL-2 binding to the transmembrane IL-2 receptors. The phosphorylation of STAT5 in defined lymphocyte subpopulations was measured using fresh human peripheral blood mononuclear cells (PBMC) and the forkhead transcription factor FOXP3 was used to identify the Treg population in FACS analysis.
(§3) Briefly, human PBMC were isolated by Ficoll-Hypaque centrifugation from the buffy coat of a healthy donor. PBMC were starved in serum-free MACS buffer at 4° C. for 1 hour. 2×10^5 PBMC were then treated with serial dilutions of test compounds for 30 min at 37° C. Cells were fixed and permeabilized with Foxp3/Transcription Factor Staining Buffer Set (EBIO) by incubating with 1× Foxp3 fixation/permeabilization working solution for 30 minutes and washing with 1× permeabilization buffer. Cells were additionally fixed with Cytofix buffer and permeabilized with Perm Buffer III (BD Biosciences) and then washed. After blocking Fc receptors by adding human TruStain FcX (1:50 dilution), cells were stained with a mixture of anti-CD25-PE, anti-FOXP3-APC, anti-pSTAT5-FITC, and anti-CD4-PerCP-Cy5.5 antibodies at concentrations recommended by the manufacturer for 45 minutes at room temperature. Cells were collected by centrifugation, washed, resuspended in FACS buffer, and analyzed by flow cytometry. The flow cytometry data was gated into CD4+/Foxp3+/CD25^high and CD4+/Foxp3−/CD25^low groups for the Treg and CD4 conventional T cell subsets, respectively. Data are expressed as a percent of pStat5 positive cells in gated population.
The S125I substitution was then introduced into wild-type IL-2 or IL-2 variants that already harbored 1 or 2 mutations targeting receptor subunit(s) β or γ or βγ. The resulting IL-2 variants containing isoleucine at position 125 were tested for their ability to stimulate STAT5 phosphorylation in Treg and Tconv cells in comparison with their respective serine counterparts at position 125. Table 7 lists the potency and selectivity of IL-2 variants in Treg cells. The two molecules in the same row of Table 7 share the same other amino acid substitution(s) and differ only at position 125 with either serine or isoleucine.

[4] = system: STAT5 phosphorylation in CD4+ Tconv cells; assay: STAT5 phosphorylation in CD4+ Tconv cells, human PBMC assay by FACS; format: cell-based
Description: as §2, §3

[5] = system: STAT5 phosphorylation in CD4+ Treg cells; assay: STAT5 phosphorylation in CD4+ Treg cells, human PBMC assay by FACS; format: cell-based
Description: as §2, §3

Substance | aggregates / high-molecular weight species (SEC) [1] [%] | expression level (titer) [2] | Aggregation % (SEC) ([1]; Isoleucine-125 constructs) [%] | Treg Selectivity ([3]; Isoleucine-125 constructs) | Expression ([2]; Isoleucine-125 constructs) [mg/L] | STAT5 phosphorylation activity in CD4+ Tconv cells (in words) [4] | Aggregation % (SEC) ([1]; Serine-125 constructs) [%] | activity profile / selectivity window Treg over CD4+ Tconv (in words) [3] | Treg Selectivity ([3]; Serine-125 constructs) | Expression ([2]; Serine-125 constructs) [mg/L] | STAT5 phosphorylation activity in Treg cells (in words) [5] | potency in Treg cells relative to CD4+ Tconv cells [3]
P-0318: IL-2 D20I/N88I Fc fusion, SEQ ID NO: 97 | 65 | similarly low level | – | – | – | – | – | – | – | – | – | –
P-0492: IL-2 L19D/S125I Fc fusion, SEQ ID NO: 191 | – | – | 0 | Yes | 13.6 | – | – | – | – | – | – | –
P-0493: IL-2 D20E/S125I Fc fusion, SEQ ID NO: 192 | – | – | 1.7 | Yes | 7.9 | – | – | – | – | – | – | –
P-0317: IL-2 D20I/N88R Fc fusion, SEQ ID NO: 96 | 7.5 | similarly low level | – | – | – | – | – | – | – | – | – | –
P-0424: IL-2 L19H Fc fusion, SEQ ID NO: 153 | – | – | – | – | – | reduced | 21.4 | selective activation of Treg cells over CD4+ Tconv cells | Yes | 7.7 | – | –
P-0363: IL-2 D20T Fc fusion, SEQ ID NO: 74 | – | – | – | – | – | largely diminished or abolished | 29.4 | some or significant biased selective window | – | 1.4 | ability to induce STAT5 phosphorylation | –
P-0364: IL-2 D20E Fc fusion, SEQ ID NO: 75 | – | – | – | – | – | largely diminished or abolished | 21.1 | – | Yes | 0.7 | ability to induce STAT5 phosphorylation | –
P-0447: IL-2 L19H/Q126E Fc fusion, SEQ ID NO: 173 | – | – | – | – | – | nearly completely abolished; also recorded: largely abolished | 23.7 | on par with Benchmark-2 | Yes | 7.3 | robust biological activity; also recorded: significant potency | –
P-0419: IL-2 L19Y/Q126E Fc fusion, SEQ ID NO: 105 | – | – | – | – | – | varied significantly; also recorded: largely abolished | 33.8 | significantly widened; also recorded: very comparable to that of the Benchmark-1 molecule; also recorded: comparable activity profile to Benchmark-1 | Yes | 6.7 | mainly reserved; also recorded: retained comparable potency; also recorded: significant potency | –
P-0425: IL-2 L19D Fc fusion, SEQ ID NO: 154 | – | – | – | – | – | significantly impaired | 32.6 | wide window for selective targeting of Treg subset | Yes | 2.6 | slightly reduced potency | –
P-0471: IL-2 L19Y/S125I Fc fusion, SEQ ID NO: 183 | 1 | 19.3 mg/L | 1.0 | Yes | 19.3 | varied significantly | – | – | – | – | retained comparable potency | –
P-0372: IL-2 L19Y Fc fusion, SEQ ID NO: 81 | 21.7 | 4.0 mg/L | – | – | – | largely retained the biological activity | 21.7 | modestly improved selective window | Yes | 4.0 | minimally impacted the pSTAT5 activation potency | –
P-0491: IL-2 L19H/S125I Fc fusion, SEQ ID NO: 190 | – | – | 0.6 | Yes | 36.7 | – | – | without altering Treg selectivity | – | – | slightly increased potency | –
P-0250: wild type IL-2 Fc fusion protein, C-terminal fusion, SEQ ID NO: 71 [reference compound] | – | around 3 mg/L | – | – | – | – | 25.7 | – | Yes | 3.1 | – | about 250 fold
P-0495: IL-2 L19Y/S125I/Q126E Fc fusion, SEQ ID NO: 194 | – | – | 0.8 | Yes | 23.5 | – | – | – | – | – | – | –
P-0494: IL-2 D20T/S125I Fc fusion, SEQ ID NO: 193 | – | – | 0.5 | – | 11.7 | – | – | – | – | – | – | –
